Measurements: patent US20130273029A1 (Novartis, published 2013)

Experiments:
[1] = target: T1, Hu HER3: CD33-[Human HER3, residues 20-640]-TAG (human, UniProt P21860 20-640); assay: SET, IgG vs soluble HER3-Tag
T1 construct: also called hu HER3-Tag; HER3-Tag; not shown: C-terminal TAG (e.g., FLAG TAG)
Procedure: Affinity determination in solution was essentially performed as previously described (Friguet et al., (1985) J Immunol Methods 77:305-19). In order to improve the sensitivity and accuracy of the SET method, it was transferred from classical ELISA to ECL based technology (Haenel et al., (2005) Anal Biochem 339:182-84).
The data was evaluated with XLfit software (ID Business Solutions) applying customized fitting models.
Antibody affinity was determined by solution equilibrium titration (SET) as described above. The results are summarized in Table 3 and example titration curves for MOR12616 and MOR12925 are contained in FIG. 1.

[2] = target: T2, Human HER3, endogenous, on human cancer cell lines (SK-Br-3, MCF7, BT-474) (human, UniProt P21860 20-1342); assay: cell-based or functional assay
T2 sequence (P21860 20-1342): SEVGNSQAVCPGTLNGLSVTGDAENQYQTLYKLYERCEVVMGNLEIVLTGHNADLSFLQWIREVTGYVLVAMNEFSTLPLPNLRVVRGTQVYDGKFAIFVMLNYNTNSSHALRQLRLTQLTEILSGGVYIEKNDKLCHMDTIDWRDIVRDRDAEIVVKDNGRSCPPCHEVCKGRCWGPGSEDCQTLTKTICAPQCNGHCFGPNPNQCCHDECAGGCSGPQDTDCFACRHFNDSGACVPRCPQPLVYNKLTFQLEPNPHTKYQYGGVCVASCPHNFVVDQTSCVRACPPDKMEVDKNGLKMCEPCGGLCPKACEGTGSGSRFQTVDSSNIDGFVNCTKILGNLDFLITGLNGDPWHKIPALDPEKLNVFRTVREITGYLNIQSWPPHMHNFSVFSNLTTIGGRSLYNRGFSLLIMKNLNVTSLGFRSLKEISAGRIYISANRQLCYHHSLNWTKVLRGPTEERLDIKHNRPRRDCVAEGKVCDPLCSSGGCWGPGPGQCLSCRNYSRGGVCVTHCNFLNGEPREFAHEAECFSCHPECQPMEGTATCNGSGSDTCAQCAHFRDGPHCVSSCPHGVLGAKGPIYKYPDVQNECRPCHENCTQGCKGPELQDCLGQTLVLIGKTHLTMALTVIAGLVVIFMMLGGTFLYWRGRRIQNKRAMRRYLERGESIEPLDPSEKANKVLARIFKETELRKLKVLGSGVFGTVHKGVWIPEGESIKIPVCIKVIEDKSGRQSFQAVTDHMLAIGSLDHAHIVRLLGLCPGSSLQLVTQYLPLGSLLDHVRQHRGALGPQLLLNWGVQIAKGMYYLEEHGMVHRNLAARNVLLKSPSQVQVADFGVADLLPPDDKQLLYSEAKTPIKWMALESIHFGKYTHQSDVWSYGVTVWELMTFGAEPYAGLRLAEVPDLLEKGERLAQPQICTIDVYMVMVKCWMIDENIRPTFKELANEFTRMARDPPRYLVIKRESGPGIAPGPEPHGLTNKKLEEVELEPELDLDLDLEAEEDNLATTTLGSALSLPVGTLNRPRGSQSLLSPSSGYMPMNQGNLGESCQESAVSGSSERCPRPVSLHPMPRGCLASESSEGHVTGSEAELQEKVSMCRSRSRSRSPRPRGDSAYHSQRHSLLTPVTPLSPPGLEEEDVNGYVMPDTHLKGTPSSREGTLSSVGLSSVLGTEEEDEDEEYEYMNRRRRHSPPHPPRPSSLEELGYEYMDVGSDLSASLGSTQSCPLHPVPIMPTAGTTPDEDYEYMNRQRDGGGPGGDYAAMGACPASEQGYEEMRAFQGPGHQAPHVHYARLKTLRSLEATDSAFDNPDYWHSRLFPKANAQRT

[3] = target: T2, Human HER3, endogenous, on human cancer …; assay: cell-based or functional assay; remark: listed apart in the source
[4] = target: T2, Human HER3, endogenous, on human cancer …; assay: cell-based or functional assay; remark: listed apart in the source

T1 sequence (P21860 20-640): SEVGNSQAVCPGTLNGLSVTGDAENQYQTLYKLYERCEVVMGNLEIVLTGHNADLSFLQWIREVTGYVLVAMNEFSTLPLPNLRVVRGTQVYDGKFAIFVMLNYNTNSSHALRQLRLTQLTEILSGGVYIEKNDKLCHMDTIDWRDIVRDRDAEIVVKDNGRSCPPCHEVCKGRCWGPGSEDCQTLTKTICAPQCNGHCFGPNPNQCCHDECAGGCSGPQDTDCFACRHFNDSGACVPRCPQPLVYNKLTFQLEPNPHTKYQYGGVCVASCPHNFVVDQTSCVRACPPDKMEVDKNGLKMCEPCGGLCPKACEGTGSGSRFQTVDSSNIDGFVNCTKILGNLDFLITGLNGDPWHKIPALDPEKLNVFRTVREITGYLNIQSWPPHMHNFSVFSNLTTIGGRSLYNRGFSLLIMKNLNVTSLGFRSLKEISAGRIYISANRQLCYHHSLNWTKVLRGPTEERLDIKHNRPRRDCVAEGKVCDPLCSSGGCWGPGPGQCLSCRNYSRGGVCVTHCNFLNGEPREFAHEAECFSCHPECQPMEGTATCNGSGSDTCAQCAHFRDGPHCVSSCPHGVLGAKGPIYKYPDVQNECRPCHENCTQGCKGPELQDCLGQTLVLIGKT

B1: MOR13752 (antibody, human IgG1, kappa, V domains shown)
VH: QVQLVQSGAEVKKPGESLKISCKGSGYSFTNYWVAWVRQMPGKGLEWMGIIYPGGSDTIYSPSFQGQVTISADKSISTAYLQWSSLKASDTAMYYCARVHIIQPPSAWSYNAMDVWGQGTLVTVSS
VL: DIQMTQSPSSLSASVGDRVTITCRASQSISTYLNWYQQKPGKAPKLLIFGASNLQSGVPSRFSGSGSGTDFTLTISSLQPEDFATYYCQQSITELFTFGQGTKVEIKR
notes: tested as IgG
Kd [1]: 96 pM | BT-474 proliferation % inhibition [2]: 22% | BT-474 proliferation IC50 [2]: 42800 pM | SK-Br-3 proliferation % inhibition [2]: 40% | SK-Br-3 proliferation IC50 [2]: 3000 pM | BT-474 pAkt (S473) % inhibition [3]: 76% | BT-474 pAkt (S473) IC50 [3]: 39100 pM | SK-Br-3 pAkt (S473) % inhibition [3]: 86% | SK-Br-3 pAkt (S473) IC50 [3]: 734 pM | BT474 pHER3 % inhibition [4]: 45% | BT474 pHER3 IC50 [4]: 4240 pM | SK-Br-3 pHER3 % inhibition [4]: 71% | SK-Br-3 pHER3 IC50 [4]: 1000 pM

B2: MOR12924 (antibody, human IgG1, kappa, V domains shown)
VH: QVQLVQSGAEVKKPGESLKISCKGSGYSFTNSWVAWVRQMPGKGLEWMGIIYPGNSDTIYSPSFQGQVTISADKSISTAYLQWSSLKASDTAMYYCARVHIIQPPSAWSYNAMDVWGQGTLVTVSS
VL: DIQMTQSPSSLSASVGDRVTITCRASQSISTYLNWYQQKPGKAPKLLIFGASNLQSGVPSRFSGSGSGTDFTLTISSLQPEDFATYYCQQSVWEPATFGQGTKVEIKR
MCF7 proliferation % inhibition [2]: 23% | MCF7 proliferation IC50 [2]: 497 pM | SK-Br-3 proliferation % inhibition [2]: 44% | SK-Br-3 proliferation IC50 [2]: 533 pM | BT474 pHER3 % inhibition [4]: 62% | BT474 pHER3 IC50 [4]: 1590 pM | MCF7 pHER3 % inhibition [4]: 80% | MCF7 pHER3 IC50 [4]: 631 pM | SK-Br-3 pHER3 % inhibition [4]: 76% | SK-Br-3 pHER3 IC50 [4]: 123 pM

B3: MOR12923 (antibody, human IgG1, kappa, V domains shown)
VH: QVQLVQSGAEVKKPGESLKISCKGSGYSFTNSWVAWVRQMPGKGLEWMGIIYPGNSDTIYSPSFQGQVTISADKSISTAYLQWSSLKASDTAMYYCARVHIIQPPSAWSYNAMDVWGQGTLVTVSS
VL: DIQMTQSPSSLSASVGDRVTITCRASQSISTYLNWYQQKPGKAPKLLIFGASNLQSGVPSRFSGSGSGTDFTLTISSLQPEDFATYYCQQSMYLPFTFGQGTKVEIKR
MCF7 proliferation % inhibition [2]: 29% | MCF7 proliferation IC50 [2]: 266 pM | SK-Br-3 proliferation % inhibition [2]: 42% | SK-Br-3 proliferation IC50 [2]: 62 pM | BT474 pHER3 % inhibition [4]: 61% | BT474 pHER3 IC50 [4]: 1050 pM | MCF7 pHER3 % inhibition [4]: 83% | MCF7 pHER3 IC50 [4]: 540 pM | SK-Br-3 pHER3 % inhibition [4]: 74% | SK-Br-3 pHER3 IC50 [4]: 70 pM

B4: MOR13755 (antibody, human IgG1, kappa, V domains shown)
VH: QVQLVQSGAEVKKPGESLKISCKGSGYSFTTYWVAWVRQMPGKGLEWMGIIYPGQSDTIYSPSFQGQVTISADKSISTAYLQWSSLKASDTAMYYCARVHIIQPPSAWSYNAMDVWGQGTLVTVSS
VL: DIQMTQSPSSLSASVGDRVTITCRASQSISTYLNWYQQKPGKAPKLLIFGASNLQSGVPSRFSGSGSGTDFTLTISSLQPEDFATYYCQQSITELFTFGQGTKVEIKR
notes: tested as IgG
Kd [1]: 24 pM | BT-474 proliferation % inhibition [2]: 41% | BT-474 proliferation IC50 [2]: 738 pM | SK-Br-3 proliferation % inhibition [2]: 52% | SK-Br-3 proliferation IC50 [2]: 207 pM | BT-474 pAkt (S473) % inhibition [3]: 79% | BT-474 pAkt (S473) IC50 [3]: 645 pM | MCF7 pAkt (S473) % inhibition [3]: 79% | MCF7 pAkt (S473) IC50 [3]: 468 pM | SK-Br-3 pAkt (S473) % inhibition [3]: 91% | SK-Br-3 pAkt (S473) IC50 [3]: 131 pM | BT474 pHER3 % inhibition [4]: 73% | BT474 pHER3 IC50 [4]: 657 pM | MCF7 pHER3 % inhibition [4]: 79% | MCF7 pHER3 IC50 [4]: 331 pM | SK-Br-3 pHER3 % inhibition [4]: 80% | SK-Br-3 pHER3 IC50 [4]: 217 pM

B5: MOR13754 (antibody, human IgG1, kappa, V domains shown)
VH: QVQLVQSGAEVKKPGESLKISCKGSGYSFTSYWVAWVRQMPGKGLEWMGIIYPGGSDTIYSPSFQGQVTISADKSISTAYLQWSSLKASDTAMYYCARVHIIQPPSAWSYNAMDVWGQGTLVTVSS
VL: DIQMTQSPSSLSASVGDRVTITCRASQSISTYLNWYQQKPGKAPKLLIFGASNLQSGVPSRFSGSGSGTDFTLTISSLQPEDFATYYCQQSITELFTFGQGTKVEIKR
notes: tested as IgG
Kd [1]: 290 pM | BT-474 proliferation % inhibition [2]: 17% | BT-474 proliferation IC50 [2]: 8000 pM | SK-Br-3 proliferation % inhibition [2]: 40% | SK-Br-3 proliferation IC50 [2]: 6470 pM | BT-474 pAkt (S473) % inhibition [3]: 64% | SK-Br-3 pAkt (S473) % inhibition [3]: 84% | SK-Br-3 pAkt (S473) IC50 [3]: 465 pM | BT474 pHER3 % inhibition [4]: 49% | BT474 pHER3 IC50 [4]: 3900 pM | SK-Br-3 pHER3 % inhibition [4]: 63% | SK-Br-3 pHER3 IC50 [4]: 606 pM

B6: MOR13758 (antibody, human IgG1, kappa, V domains shown)
VH: QVQLVQSGAEVKKPGESLKISCKGSGYSFTLYWVAWVRQMPGKGLEWMGIIYPGQSDTIYSPSFQGQVTISADKSISTAYLQWSSLKASDTAMYYCARVHIIQPPSAWSYNAMDVWGQGTLVTVSS
VL: DIQMTQSPSSLSASVGDRVTITCRASQSISTYLNWYQQKPGKAPKLLIFGASNLQSGVPSRFSGSGSGTDFTLTISSLQPEDFATYYCQQSITELFTFGQGTKVEIKR
notes: tested as IgG
Kd [1]: 21 pM | BT-474 proliferation % inhibition [2]: 38% | BT-474 proliferation IC50 [2]: 516 pM | SK-Br-3 proliferation % inhibition [2]: 47% | SK-Br-3 proliferation IC50 [2]: 133 pM | BT-474 pAkt (S473) % inhibition [3]: 78% | BT-474 pAkt (S473) IC50 [3]: 371 pM | SK-Br-3 pAkt (S473) % inhibition [3]: 90% | SK-Br-3 pAkt (S473) IC50 [3]: 110 pM | BT474 pHER3 % inhibition [4]: 67% | BT474 pHER3 IC50 [4]: 382 pM | SK-Br-3 pHER3 % inhibition [4]: 77% | SK-Br-3 pHER3 IC50 [4]: 91 pM

B7: MOR13756 (antibody, human IgG1, kappa, V domains shown)
VH: QVQLVQSGAEVKKPGESLKISCKGSGYSFTLTWVAWVRQMPGKGLEWMGIIYPGQSDTIYSPSFQGQVTISADKSISTAYLQWSSLKASDTAMYYCARVHIIQPPSAWSYNAMDVWGQGTLVTVSS
VL: DIQMTQSPSSLSASVGDRVTITCRASQSISTYLNWYQQKPGKAPKLLIFGASNLQSGVPSRFSGSGSGTDFTLTISSLQPEDFATYYCQQSITELFTFGQGTKVEIKR
notes: tested as IgG
Kd [1]: 25 pM | BT-474 proliferation % inhibition [2]: 42% | BT-474 proliferation IC50 [2]: 710 pM | SK-Br-3 proliferation % inhibition [2]: 50% | SK-Br-3 proliferation IC50 [2]: 97 pM | BT-474 pAkt (S473) % inhibition [3]: 86% | BT-474 pAkt (S473) IC50 [3]: 189 pM | SK-Br-3 pAkt (S473) % inhibition [3]: 90% | SK-Br-3 pAkt (S473) IC50 [3]: 107 pM | BT474 pHER3 % inhibition [4]: 66% | BT474 pHER3 IC50 [4]: 322 pM | SK-Br-3 pHER3 % inhibition [4]: 78% | SK-Br-3 pHER3 IC50 [4]: 95 pM

B8: MOR13750 (antibody, human IgG1, kappa, V domains shown)
VH: QVQLVQSGAEVKKPGESLKISCKGSGYSFTSSWVAWVRQMPGKGLEWMGIIYPGGSDTIYSPSFQGQVTISADKSISTAYLQWSSLKASDTAMYYCARVHIIQPPSAWSYNAMDVWGQGTLVTVSS
VL: DIQMTQSPSSLSASVGDRVTITCRASQSISTYLNWYQQKPGKAPKLLIFGASNLQSGVPSRFSGSGSGTDFTLTISSLQPEDFATYYCQQSITELFTFGQGTKVEIKR
notes: tested as IgG
Kd [1]: 160 pM | BT-474 proliferation % inhibition [2]: 21% | BT-474 proliferation IC50 [2]: 13800 pM | SK-Br-3 proliferation % inhibition [2]: 34% | SK-Br-3 proliferation IC50 [2]: 5470 pM | BT-474 pAkt (S473) % inhibition [3]: 60% | BT-474 pAkt (S473) IC50 [3]: 17800 pM | SK-Br-3 pAkt (S473) % inhibition [3]: 83% | SK-Br-3 pAkt (S473) IC50 [3]: 1640 pM | BT474 pHER3 % inhibition [4]: 44% | BT474 pHER3 IC50 [4]: 6680 pM | SK-Br-3 pHER3 % inhibition [4]: 60% | SK-Br-3 pHER3 IC50 [4]: 1440 pM
